Assay results as given in the DeepSol protein solubility set.

Experiment: soluble on expression in E. coli; label from the status in PepcDB or PDB records

Soluble on expression in E. coli, not soluble:
MGSDKIHHHHHHMERTNTTTFKFFSLGGSNEVGRSCHILQYKGKTVMLDAGIHPAYQGLASLPFYDEFDLSKVDILLISHFHLDHAASLPYVMQRTNFQGRVFMTHPTKAIYRWLLRDFVRVTSIGSSSSSMGTKDEGLFSDEDLVDSFDKIETVDYHSTVDVNGIKFTAFHAGHVLGAAMFQIEIAGLRVLFTGDYSREVDRHLNSAEVPPLSSNVLIVESTFGTATHEPRLNRERKLTQLIHSTVMRGGRVLLPVFALGRAQEIMLILDEYWSQHADELGGGQVPIFYASNLAKKCMSVFQTYVNMMNDDIRKKFRDSQTNPFIFKNISYLRNLEDFQDFGPSVMLASPGMLQSGLSRDLLERWCPEDKNLVLITGYSIEGTMAKFIMLEPDTIPSINNPEITIPRRCQVEEISFAAHVDFQENLEFIEKISAPNIILVHGEANPMGRLKSALLSNFASLKGTDNEVHVFNPRNCVEVDLEFQGVKVAKAVGNIVNEIYKEENVEIKEEIAAKIEPIKEENEDNLDSQAEKGLVDEEEHKDIVVSGILVSDDKNFELDFLSLSDLREHHPDLSTTILRERQSVRVNCKKELIYWHILQMFGEAEVLQDDDRVTNQEPKVKEESKDNLTNTGKLILQIMGDIKLTIVNTLAVVEWTQDLMNDTVADSIIAILMNVDSAPASVKLSSHSCDDHDHNNVQSNAQGKIDEVERVKQISRLFKEQFGDCFTLFLNKDEYASNKEETITGVVTIGKSTAKIDFNNMKILECNSNPLKGRVESLLNIGGNLVTPLC
MGSDKIHHHHHHMERVALACWDDFEAQLKKLDEEANAVEDARGDVRASGYLFRGHGDADYPLQTSLERFFARPLSLADYYRLALVAKPRLEAFTGRRWELPSQEAYAAWLEGAAGSTLDDYPAYDYLAYLRHHGFPSPLLDWTQSPYVAAFFAFRYPLPGAKAVAVYAYRDAPDAKTASSGAARIHRQGPYVSSDKRHFLQQSQYTFCTRTDDAGVVGYIGHEQAFRDVSPADRIRKFLIPLSARRQALMQLNRMNINAFSLFGSEDSLVETIAISDIYLRGGDL
MGSDKIHHHHHHMESIKQIYRMGHGPSSSHTMGPMRAAQMFLERNRGAVRFNVTLYGSLAATGKGHMTDAAILEVLQPVAKTNITWEPKTFLPFHPNGMLFESYNESGEELDTWTVYSIGGGTLANESFNELRTEQVYDMHTIKEIQAWCEKTGHSYWEYVEQHEGPSIWDYLAEVWEVMQDAVRRGLEAEGILPGGLGIRRKASDYMIRAKGYGSSIKSRGMVYAYALAVSEENACGGKIVTAPTCGSCGVMPAVLYHLKETREFRDSRILRALATAGLFGNVVRTNASVSGAEVGCQGEVGVACAMAAAAASQLFGGTPAQIEYAAEMGLEHHLGLTCDPVCGLVQIPCIERNAFAAARALDANTFSNFSDGKHRVSFDQVVEVMRQTGNDLPSLYKETSEGGLAKNMENSNN
MGSDKIHHHHHHMETISQEKAIEAMPLEGAERTRFWRDPRFKGMECLSATFITHEFAPHAHDTFSIGAIEAGSQISTIKGERSQTGPGDLYLINPDEIHDGHPGHEGYRYRMVYPPTDLLVEILEDVTGRSFKGTPSFSRLLLTDRELALGFHRAHRALEGKVGTLEADESMFGFLARLFERHGNAIIVPLQTRESSAVHRARDYLVENYTHDIGLEELAKLAGLSRAHLIRAFRKEFHITPHAFLTDKRVREAKALLRRGWSAADTAYHCGFADQAHFSRHFKARTGVTPGAYRSA
MGSDKIHHHHHHMETWRFIDSGDRDPAYNMALDEALLNWHSEGLIPPTIRFYGWNPPTLSIGYFQKVQKEINMEMVEKHQLGFVRRPTGGRGVLHDKELTYSVIVTEEHPDMPASVTEAYRIISQGILEGFRDLGLDAYFAVPKTEEEKNALKNPRSAVCFDAPSWYELVVEGRKVAGSAQTRQKGVILQHGSIVLDIDEDKLFDLFNYPSERVRERMQRNFKNKAVPINELRDVPLSMEEVKKAFKDGFEKGLSIKLEPYTLTDAEEAEVKQIAKERYETDEWNFRK
MGSDKIHHHHHHMFERSDETLIAQALKGKKSAWLTLVKRYEKNLYNYALRMVNNPADAMDLMQDIFIALFRNLSKFRGECPFKNWLFKIAHYRCLEYYRRKRPMQSLDDVPEQEDEESVCLEKNLQIQQQSSALLEAMQHLPVKQKLVVELKFFQQCTFEDISQQLGISTNTAKSQLYSALDKLKLHLVDDQIIKVGVEYV
MGSDKIHHHHHHMFHREDFSKALLKKALQPGMRVMDIGCGSGELTRLAADIVGKEGDVVGIDINEQLLWQARHDNGYANVSYQNADLAALSSFETKSFDAIIGRRVLMYQKDPKKVIESLTPLLKPNGFYVFQESDAMCLELAKPSFVNMNKIQSLIWQTVEKEGGHIHIGSQLEQLMLEAGLIVDHFVSENVIQTSQTGTDLSWLLNIMKERIQKYSDLQGLEDVNLQKELEENNDHFIRDCQFGIISHRVDE
MGSDKIHHHHHHMFKPNYHFFPITGWMNDPNGLIFWKGKYHMFYQYNPRKPEWGNICWGHAVSDDLVHWRHLPVALYPDDETHGVFSGSAVEKDGKMFLVYTYYRDPTHNKGEKETQCVAMSENGLDFVKYDGNPVISKPPEEGTHAFRDPKVNRSNGEWRMVLGSGKDEKIGRVLLYTSDDLFHWKYEGVIFEDETTKEIECPDLVRIGEKDILIYSITSTNSVLFSMGELKEGKLNVEKRGLLDHGTDFYAAQTFFGTDRVVVIGWLQSWLRTGLYPTKREGWNGVMSLPRELYVENNELKVKPVDELLALRKRKVFETAKSGTFLLDVKENSYEIVCEFSGEIELRMGNESEEVVITKSRDELIVDTTRSGVSGGEVRKSTVEDEATNRIRAFLDSCSVEFFFNDSIAFSFRIHPENVYNILSVKSNQVKLEVFELENIWL
MGSDKIHHHHHHMFKSTLNSIIRRPLKGFQLLRGADSSNTRPQSPRASARDVTEKQILRTPSAPTAIPLREIIYRVPSLFPRPLEDSVKDFRDFIKNEDAFQTELLKTLPFYPTPSESKTARLIRTVVDDEGNYINEFCIRPRKTSVPEADLKHLVFIHGYGAGLGFFIKNFEDIPLLDNEWCIHAIDLPGYGFSSRPKFPFEYPRDNIHSVQDWFHERIHTWFSKRNLLNRPEKNIVMAHSLGSYLMALYLQKYKESPSFKKLILCSPAGVSYRDFNNTASEVEKWKPPPWWYVKLWDRNISPFTLVRNFRQLGSKITSGWSYRRFKHILNGDPEQSKRFEALHRYAYAIFNKRGSGEYLLSFALKCGGEPRLSLEQQLFDGKKSDILKNSNCDWLWLYGDDDWMDVNGGLRVSRFLKEKLKQKSNVIIVPHSGHHLYLDNYKFFNNILTKEMQKI
MGSDKIHHHHHHMFNAQYFRTFITLVETGSFTHTARKLEMTQPGVSQHIRKLERYLDKSLLYRHGRRFTLTETGRRAYDYAVKLFAEHEQFRHSLDNDSPDTGECRVASPSSVGLMFYPFILGYQQMHPGLTVTYDFAFNAEIVDAVLAGRFDVGIVTDVTKHPDLDFEPWHQEPLCLLVPADFTGTTISELMALGFMNYSDGINNASSLLRRNFAGEFRSMSHFPQQGFSNEVSMVLDAVARGLGFTVVPRSVMETSPWQRQVKELPLAESVYETLYVVTKRGVEMPRRYQQLLGEFRLQRRNVLYGYAEAPPLEDEA
MGSDKIHHHHHHMFNGRPFPVDAFPKIIRNAIYEVEQHTQAPQGLIAASALGVISLACQNRIDVCRLNNLRGPVSLFLMTLAESGERKSTVDKLLMKPLYQLEEDLFEKYTHDLTAWRNDEAIFNIEKKALMSKLKSDIRRNKDHLATNERLKELLTTNPKAPVRFKFLFNDATPAAIKAHLCGHWRSVGIMSDEAGIIFNGYTLNELPFINKMWDGSIFTVERKNEPEKLIRDARITLSLMVQPNVFKGYIDRKGDMAKGIGFFARCLMCQPASTQGNRKISNPIFSNEHLPVFHQRLMEIVNESIIKINENNRICLRFSAEAERHWIEFYNQVESEMRMIGLLYDFKDYASKMAENMARLAALLHYFSGDGGDISVTAVKAAVEIVAWYIEEYIRLFSKKEEFSLDVSEADELYCWIKDYCTQKFSSCIKKNIILQFGPNKFRNRDKANELIRILISQNKIFISSWGKTKIINITHCVF
